Test results reported in US20230220021A1 (UNIVERSITY OF COPENHAGEN, published 2023).
Numbering of substitutions follows the chain as printed. Where no end group is shown, it is not given here.

Key:
PSD-95-PDZ2 H225A = target: T1, PSD-95-PDZ2 H225A (UniProt P78352 160-246); experiment: FP saturation
T1 construct: domain: PDZ2; not shown: 7x His tag

[1] = target: T2, (7× His)-PSD-95-PDZ2 wild type (UniProt P78352 160-246); experiment: FP saturation
T2 construct: domain: PDZ2; recombinant from E. coli; also called PSD-95-PDZ2 WT; not shown: 7x His tag

PSD-95-PDZ2 K165A = target: T3, PSD-95-PDZ2 K165A (UniProt P78352 160-246); experiment: FP saturation
T3 construct: domain: PDZ2; also called K165 mutation; not shown: 7x His tag

PSD-95-PDZ2 V229A = target: T4, PSD-95-PDZ2 V229A (UniProt P78352 160-246); experiment: FP saturation
T4 construct: domain: PDZ2; not shown: 7x His tag

PSD-95-PDZ2 K233A = target: T5, PSD-95-PDZ2 K233A; experiment: FP saturation, TAMRA probe titrated with the protein
T5 chain: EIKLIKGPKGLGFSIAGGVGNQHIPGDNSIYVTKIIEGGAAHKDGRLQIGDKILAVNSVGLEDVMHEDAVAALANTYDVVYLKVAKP
Experimental: (§1) Fluorescence polarization (FP). FP assays were performed in a 384-well plate format. Fluorescence polarization was measured using a Safire 2 plate reader. The instrument Z-factor was optimized for each assay. The G-factor was calibrated to an initial milli polarization value of 20. […] Every measurement was performed in NaPI 50 mM, 50 mM NaCl and 1% BSA at pH 7.2, 25° C. […] The curves were done in triplicates. Then, the polarization was fitted into a one-site binding model using Prism software 8.0 (GraphPad), from which the Kd can be measured. […] The mili polarization (mP) values were plotted as a function of peptide concentration and fitted to a sigmoidal dose-response curve using Prism software 8.0 (GraphPad). The Kᵢ values were calculated according to Nikolovska-Coleska Z. et al.⁴⁰⁻⁴¹
(§2) Obtained binding affinities (Kd values) for each PSD-95-PDZ2 Ala mutants were normalized to PSD-95-PDZ2 WT values to obtain the fold change for each mutation (FIG. 8).

PSD-95-PDZ2 K168A = target: T6, PSD-95-PDZ2 K168A; experiment: as above
T6 chain: T5 chain with K9A, A74K
Experimental: as §1, §2

PSD-95-PDZ2 T192A = target: T7, PSD-95-PDZ2 T192A; experiment: as above
T7 chain: T5 chain with T33A, A74K
Experimental: as §1, §2

PSD-95-PDZ2 S173A = target: T8, PSD-95-PDZ2 S173A; experiment: as above
T8 chain: T5 chain with S14A, A74K
Experimental: as §1, §2

PSD-95-PDZ2 K193A = target: T9, PSD-95-PDZ2 K193A; experiment: as above
T9 chain: T5 chain with K34A, A74K
Experimental: as §1, §2

PSD-95-PDZ2 N180A = target: T10, PSD-95-PDZ2 N180A; experiment: as above
T10 chain: T5 chain with N21A, A74K
Experimental: as §1, §2

PSD-95-PDZ2 E226A = target: T11, PSD-95-PDZ2 E226A; experiment: as above
T11 chain: T5 chain with E67A, A74K
Experimental: as §1, §2

B1: TAMRA labelled C-terminal GluN2B peptide (KLSSIESDV-COOH) (peptide)
peptide: KLSSIESDV-OH
modifications: also: TAMRA label (site not given here)
notes: also called C-terminal GluN2B TAMRA probe; GluN2B canonical peptide
PSD-95-PDZ2 H225A
  fold decrease in affinity vs PDZ2 WT: 5 fold
[1]
  Kd: 4 µM
PSD-95-PDZ2 K165A
  fold loss in affinity vs PDZ2 WT: 5 fold
PSD-95-PDZ2 V229A
  fold loss in affinity vs PDZ2 WT: 2 fold
PSD-95-PDZ2 K233A
  binding result: binds
PSD-95-PDZ2 K168A
  binding result: binds
PSD-95-PDZ2 T192A
  binding result: binds
PSD-95-PDZ2 S173A
  binding result: binds
PSD-95-PDZ2 K193A
  binding result: binds
PSD-95-PDZ2 N180A
  binding result: binds
PSD-95-PDZ2 E226A
  binding result: binds
